Assay results reported in patent publication US20210395344A1.

Assays:
[1] = biological target: COVID S1 RBD Fc fusion (Antigen 1) (SARS-CoV-2), P0DTC2; experiment: phage ELISA; conditions: remark: other sources report otherwise
[2] = biological target: SARS-CoV-2 S protein trimer (SARS-CoV-2), P0DTC2; experiment: column DB/S-T (format not explained); conditions: remark: other sources report otherwise

B1: 1-5 (antibody, V domains shown)
VH: EVQLLESGGGLVQPGGSLRLSCAASGFTFSSQAMSWVRQAPGKGLEWVSAISGSGGGTYYADSVKGRFTISRDNSKNTLYLQMNSLRAEDTAVYYCAKDRRFGEFDPWGQGTLVTVSS
VL: QSALTQPASVSGSPGQSITISCTGTSSGVGSYNLVSWYQQHPGKAPKLMIYEASKRPSGVSNRFSGSKSGNTASLTISGLQAEDEADYYCCSYAGSYTFAVFGGGTKLTVL
ELISA fold over background (fold over background) [1]: 1.6
Kd [2]: 1.16 µM
